Test results published in patent US20250289906A1, “MODULATION OF EXTRACELLULAR KINASE ACTIVITY AND FUNCTION FOR TREATMENT OF PAIN AND NEURODEGENERATIVE/NEUROIMMUNE DISEASE” (BOARD OF REGENTS, THE UNIVERSITY OF TEXAS SYSTEM, priority 2024, published 2025).

What was measured:
neuronal cFos expression = test: cFos/NeuN staining of lumbar spinal cord dorsal horn after intrathecal administration; type: in vivo, mouse
Description: cFos and NeuN staining of free-floating tissue sections. Adult mice were euthanized by isoflurane inhalation. Lumbar spinal cords were dissected and drop fixed in 10% formalin for 2 hours, cryoprotected, embedded in OCT (Fisher #1437365) and frozen on dry ice. Tissues were cryostat sectioned at […]. Tissues were blocked in 0.1M Phosphate buffer with 10% Normal Goat Serum and 0.3% Triton-X and incubated in cFos and NeuN primary antibodies for 48 hours at 4° C. Secondary antibodies were incubated for 2 hours at room temperature. Sections were slide mounted and cover slipped with Prolong Gold Antifade. Images were taken on an Olympus Fluoview FV1000 confocal microscope at 20× magnification. cFos^+ cell counts were carried out using Imaris software.
(§1) Intrathecal injections were performed as previously described under isoflurane anesthesia (6). Drugs were administered in a 5 μL volume with a Hamilton syringe. Drugs were diluted in sterile saline. Heat denaturation was done by heating proteins at 70° C. for 30 mins. VLK, KD-VLK, DIA1, FAM69c and denatured controls were administered at concentrations of 0.1 mg/mL PAP was administered at 250 mU (12). APV was administered at 0.2 mg/mL.

mice [1] = test: Intrathecal administration, Mouse Grimace Scale scoring; type: in vivo
Description: Mouse grimace scoring was conducted using the Mouse Grimace Scale (MGS) described by (49). After acclimating to the suspended plexiglass chambers for an hour, mice were scored according to the MGS by blinded experimenters at baseline and post treatment time points which are indicated in each figure. The grimace scores were averaged by group at each time point and plotted respectively.
as §1

mice [2] = test: Intrathecal administration, von Frey mechanical withdrawal thresholds; type: in vivo, mouse
Description: Behavior. Mechanical Withdrawal Thresholds were determined using von Frey Filament testing, following the method of (48). Animals were habituated to plexiglass chambers (11.4×7.6×7.6 cm) suspended on wire mesh racks. Baseline withdrawal thresholds were measured before experimental treatments, and subsequent testing was done at various timepoints indicated in each figure. Mechanical sensitivity was determined by applying von Frey filaments to the plantar aspect of the hind paws, and a response was indicated by flicking or withdrawal of the paw. For mice subjected to hindpaw incision surgeries, filaments were instead applied to the heel of the hindpaw near the site of injury but avoiding scar tissue.
as §1

[3] = target: T1, EphB2 extracellular domain (Homo sapiens, UniProt P29323); test: In vitro cell-free kinase assay; type: biochemical; conditions: 100 ng kinase, 200 ng EphB2 ectodomain, ATP, 37° C., 30 min
T1 construct: purified recombinant protein fragment with EphB2 extracellular domain (EphB2 (200 ng), active; Millipore); purchased Millipore
T1 sequence (P29323 19-543 limits assumed): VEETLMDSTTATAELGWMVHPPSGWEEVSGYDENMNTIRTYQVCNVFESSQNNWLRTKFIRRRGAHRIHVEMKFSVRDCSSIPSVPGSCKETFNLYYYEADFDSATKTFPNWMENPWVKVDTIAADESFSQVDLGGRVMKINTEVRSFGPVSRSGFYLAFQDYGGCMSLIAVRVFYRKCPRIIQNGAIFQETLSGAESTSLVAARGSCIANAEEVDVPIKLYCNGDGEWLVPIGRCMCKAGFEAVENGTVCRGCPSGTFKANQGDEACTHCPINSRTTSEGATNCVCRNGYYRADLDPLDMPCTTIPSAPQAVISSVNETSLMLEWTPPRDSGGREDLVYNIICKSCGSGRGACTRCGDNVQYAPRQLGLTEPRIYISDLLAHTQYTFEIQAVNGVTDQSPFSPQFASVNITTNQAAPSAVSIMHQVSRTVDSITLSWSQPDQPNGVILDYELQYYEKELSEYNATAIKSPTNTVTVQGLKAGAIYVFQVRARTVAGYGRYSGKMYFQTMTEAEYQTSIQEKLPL
Description: In vitro Kinase assay. For the in vitro kinase assay purified recombinant protein fragment with EphB2 extracellular domain (EphB2 (200 ng), active; Millipore) and active VLK (100 ng), VLK-KD (100 ng), Fam69C (100 ng), DIA1 (100 ng) was used. The kinase reaction was started by adding 10 mM MnCl2, 10 mM MgAc, and 100 μM ATP in ACSF buffer. After 30 min of incubation at 37° C., phosphorylated proteins were separated by SDS-PAGE and analyzed by western blotting with anti-phosphotyrosine antibody (PY99) and EphB2. This protocol was also previously described (6)

[4] = test system: endogenous EphB2-NMDAR interaction; test: EphB2/GluN1 co-immunoprecipitation in untransfected cultured cortical neurons; type: cell-based; conditions: untransfected rat cortical neurons, 45 min
Description: Primary neuronal culture and transfection. Primary neuronal cultures were derived from embryonic day 17-18 (E17-18) rat cerebral cortex and maintained as described previously (4, 6). 8×10^6 neurons were plated for 10 cm dishes and 1×10^6 neurons were plated per well of 6 well dishes for biochemical assays. 2×10^5 neurons were plated on glass bottom dishes for live cell imaging experiments. As previously described, neuronal cultures were transfected using Lipofectamine 2000 (4, 6).
Western Blotting, Immunoprecipitation (IP) and Co-IP. HEK293T cells and cultured neurons were lysed in RIPA buffer to generate protein lysates. Cortices of postnatal day 35 (P35) transgenic mice Pkdcc^flox/flox CaMKII^Cre/+ and its WT littermate controls were also lysed using RIPA buffer and an equal amount of protein was used to perform IP. Pooled dorsal horns from Pkdcc^flox/flox Pirt^Cre/+ uninjured mice and their WTlittermate controls were lysed in RIPA. Following lysis, an additional Percoll gradient spin was carried out to remove myelin and unwanted cellular debris (37) and an equal amount of protein was used to perform IP. For conditioned ACSF IP, ACSF was filtered through a […] syringe filter (Millipore, cat #SLGV004SL) and incubated with antibody for 2 h at 4° C. followed by addition of Protein-G beads and incubation overnight at 4° C. […]

EphB2-NMDAR interaction = target: T2, EphB2-NMDAR interaction (Homo sapiens, UniProt P29323); test: Proximity ligation assay (PLA) of EphB2-NMDAR in transfected HEK293T cells; type: cell-based; conditions: non-permeabilized HEK293T cells, 100 ng recombinant protein, 45 minutes
T2 sequence (P29323 19-1055): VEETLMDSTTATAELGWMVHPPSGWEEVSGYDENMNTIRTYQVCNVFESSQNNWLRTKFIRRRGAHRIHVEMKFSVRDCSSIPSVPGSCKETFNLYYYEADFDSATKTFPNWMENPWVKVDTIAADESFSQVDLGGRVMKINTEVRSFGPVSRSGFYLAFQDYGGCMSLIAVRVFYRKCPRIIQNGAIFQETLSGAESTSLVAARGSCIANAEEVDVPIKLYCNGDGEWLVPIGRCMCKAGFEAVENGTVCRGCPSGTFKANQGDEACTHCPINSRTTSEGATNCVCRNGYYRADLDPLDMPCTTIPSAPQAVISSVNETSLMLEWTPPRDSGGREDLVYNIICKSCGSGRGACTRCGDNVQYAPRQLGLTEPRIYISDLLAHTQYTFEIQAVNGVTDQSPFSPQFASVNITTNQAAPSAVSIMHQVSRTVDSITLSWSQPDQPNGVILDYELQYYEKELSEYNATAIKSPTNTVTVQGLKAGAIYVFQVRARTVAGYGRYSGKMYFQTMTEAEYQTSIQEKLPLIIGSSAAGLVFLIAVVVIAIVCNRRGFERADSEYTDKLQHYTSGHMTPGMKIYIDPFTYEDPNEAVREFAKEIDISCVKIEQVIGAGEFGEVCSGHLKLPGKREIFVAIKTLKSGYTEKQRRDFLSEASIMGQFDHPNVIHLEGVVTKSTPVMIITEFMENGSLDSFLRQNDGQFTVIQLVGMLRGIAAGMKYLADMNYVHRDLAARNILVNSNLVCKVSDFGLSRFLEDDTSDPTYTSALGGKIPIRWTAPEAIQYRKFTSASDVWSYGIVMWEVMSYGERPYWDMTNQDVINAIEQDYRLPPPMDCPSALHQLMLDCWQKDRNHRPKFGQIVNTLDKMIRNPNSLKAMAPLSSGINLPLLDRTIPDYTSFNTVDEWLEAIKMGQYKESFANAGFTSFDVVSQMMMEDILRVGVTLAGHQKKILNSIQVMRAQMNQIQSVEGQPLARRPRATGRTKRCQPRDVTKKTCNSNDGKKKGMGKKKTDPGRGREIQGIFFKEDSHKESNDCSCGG
Description: Recombinant protein—HEK293T cells were treated with 100 ng recombinant VLK, Fam69C, or DIA1. Synaptosomes were treated with 100 ng recombinant VLK. 1 mM ATP (Cat #A9187; Sigma) was applied as indicated. Recombinant PAP treatment was applied at 100 ng.
Proximity Ligation Assay (PLA). As previously described, PLA experiments on HEK293T cells, mouse brain, and human spinal cord synaptosomes were performed (4). Synaptosome PLA combined with vGlut1 immunostaining was also previously described (4).

[5] = agent given intrathecally before or together with VLK
[6] = intrathecal, 0.1 mg/mL in 5 μL, kinase given alone

`NC(CCCP(=O)(O)O)C(=O)O` (stereo not shown) [AP5, reference compound] was tested, and the “VLK-induced neuronal cFos expression” value (neuronal cFos expression; VLK+AP5 intrathecal) was “blocked”, the VLK-induced grimacing (mice [1]; [5]) was “blocked the VLK-induced pain phenotype” and the VLK-induced mechanical sensitivity (mice [2]; [5]) was “blocked the VLK-induced pain phenotype”.

B1: VLK: active recombinant Vertebrate Lonesome Kinase (VLK/PKDCC), GST-tagged, purified from BL21 cells (protein)
chain: PRPGQSPEPSPAPGPGRRGGRGELARQIRARYEEVQRYSRGGPGPGAGRPERRRLMDLAPGGPGLPRPRPPWARPLSDGAPGWPPAPGPGSPGPGPRLGCAALRNVSGAQYMGSGYTKAVYRVRLPGGAAVALKAVDFSGHDLGSCVREFGVRRGCYRLAAHKLLKEMVLLERLRHPNVLQLYGYCYQDSEDIPDTLTTITELGAPVEMIQLLQTSWEDRFRICLSLGRLLHHLAHSPLGSVTLLDFRPRQFVLVDGELKVTDLDDARVEETPCAGSTDCILEFPARNFTLPCSAQGWCEGMNEKRNLYNAYRFFFTYLLPHSAPPSLRPLLDSIVNATGELAWGVDETLAQLEKVLHLYRSGQYLQNSTASSSTEYQCIPDSTIPQEDYRCWPSYHHGSCLLSVFNLAEAVDVCESHAQCRAFVVTNQTTWTGRQLVFFKTGWSQVVPDPNKTTYVKASG
B1 was tested, and the “neuronal cFos expression (cFos+ cells)” value (neuronal cFos expression; intrathecal VLK alone) was “significant increase in neuronal cFos expression”, the “tyrosine phosphorylation of EphB2 ectodomain” value [3] was “unique capacity to phosphorylate the EphB2 ectodomain” and the “endogenous EphB2-NMDAR interaction (co-IP GluN1 with EphB2)” value [4] was “induces the endogenous EphB2-NMDAR interaction”. For the same molecule, the “grimacing (grimace scores, affective pain)” value (mice [1]; [6]) was “increased grimacing”, the “EphB2-NMDAR interaction on the cell surface (PLA)” value (EphB2-NMDAR interaction; listed as rVLK) was “induces the EphB2-NMDAR interaction on the cell surface” and the “EphB2-NMDAR interaction on the cell surface (PLA)” value (EphB2-NMDAR interaction; listed as recombinant VLK) was “induced the EphB2-NMDAR interaction on the cell surface”. For the same molecule, the “mechanical thresholds (von Frey)” value (mice [2]; [6]) was “sharp drop in mechanical thresholds”.
